Laboratory results from the supplement of paper PMC9732359.
± gives the uncertainty stated by the source.

Assay: protein stability index of a GFP-peptide fusion (yeast GPS) (PSI 1-4); higher = more stable; sorted into four equal gates, so the index is relative within each strain
Summary of the method: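 Sequencing reads from sorted gates were used to score each peptide. The library consisted of tiled 17-residue yeast protein peptides fused downstream of GFP on a Cherry-expressing plasmid, pooled and carried in yeast. Mid-log cultures in leucine-free medium were split into four equal gates by GFP/Cherry ratio, and each gate's plasmids were PCR-amplified and Illumina-sequenced. The protein stability index adds up, over all gates, the read frequency multiplied by the gate number.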

Sequence	protein stability index (doa10∆)	protein stability index (pdr5∆)	protein stability index (san1∆)	protein stability index (ubr1∆)
MSANGFAADGDALVKRF [PRE7]	3.35 ± 0.26	3.4 ± 0.23	2.9 ± 0.21	3.41 ± 0.053
ICERIFEQGQALKEDER [RRI2]				3.21 ± 0.19
IGTADIFIRQLKENEEN [BRR2]	3.61 ± 0.12	3.1 ± 0.3		1.36 ± 0.1
FKSVLPIVLLNTLRKCY [UBP6]	1.26 ± 0.11	1.23 ± 0.071	1.12 ± 0.16	1.18 ± 0.12
RADIVRNIILEARFDVL [ISW2]	2.66 ± 0.088	2.25 ± 0.071	2.09 ± 0.11	2.51 ± 0.073
MAPNTSRKQKIAKTFTV [RPL22A]	2.15 ± 0.17	2.03 ± 0.089	2.61 ± 0.13	2.03 ± 0.092
HGTSTSAEDEENIIQRL [CDC53]	3.13 ± 0.064	3.34 ± 0.059	3.13 ± 0.044	3.06 ± 0.057
LSSLILKIFQEQSLEVF [SRB8]	2.5 ± 0.087	2.67 ± 0.12	2.88 ± 0.09	2.71 ± 0.1
VSIKFTNAAFPFHDPEA [ECM29]	2.3 ± 0.053	2.11 ± 0.053	1.91 ± 0.068	1.83 ± 0.047
DYAQLDHLVSSIPMGGQ [ARP9]	2.1 ± 0.065	2.36 ± 0.071	2.36 ± 0.067	2.15 ± 0.053
SYHLWPSFTDEQWITIE [PRP8]	2.44 ± 0.089	2.66 ± 0.061	2.82 ± 0.09	2.57 ± 0.057
VSTRAIDLLWKGKTPKN [PRP28]		1.48 ± 0.12	1.18 ± 0.12	1.16 ± 0.14
QLYFQKNGAQDLVLQIL [RRI2]	2.6 ± 0.12	2.81 ± 0.12	2.32 ± 0.097	2.62 ± 0.048
KQKSWVPSYIHVEKERA [YIL149C/MLP2]	1.79 ± 0.058	2.25 ± 0.048	2.12 ± 0.082	2 ± 0.046
EPELRVLSTEEILNIFK [RPO21]	3.43 ± 0.22	3.45 ± 0.17	3.51 ± 0.084	3.55 ± 0.23
ISLIPELSVVLSGIIQD [RRI2]	1.75 ± 0.077	1.76 ± 0.09	1.96 ± 0.12	1.99 ± 0.064
SLLKTKLKQQSSTDIPS [RRI1]	2.15 ± 0.05	2.4 ± 0.054	2.21 ± 0.082	2.44 ± 0.062
EDAKYVINLKQIAKFVV [RPT1]	1.61 ± 0.12	2.4 ± 0.2	1.8 ± 0.21	1.96 ± 0.1
ISKHSKQAIYTRATASE [RPS25A]	1.98 ± 0.056	2.03 ± 0.045	1.97 ± 0.072	1.85 ± 0.039
IQEYQLCDNFNHFSLSY [COR1]	2.35 ± 0.049	2.61 ± 0.053	2.44 ± 0.055	2.27 ± 0.057
AEKELEAEIECFDSTTG [RRP40]	3.21 ± 0.17	3.06 ± 0.14	3.05 ± 0.1	2.66 ± 0.14
LPLRLQFNEFIQIMANI [PGD1]	1.52 ± 0.078	1.51 ± 0.088	1.28 ± 0.14	1.17 ± 0.084
SWSSSAAVIMRCKIYFF [PCI8]	1.24 ± 0.055	1.71 ± 0.058	1.34 ± 0.11	1.28 ± 0.047
MNGNSTNNEQLQQELAT [NUT2]	3.2 ± 0.06	3.15 ± 0.075	3.1 ± 0.053	3.07 ± 0.062
SVRGAIVGPDLAVLALV [RPS6A]	1.18 ± 0.041	1.46 ± 0.06	1.14 ± 0.11	1.38 ± 0.045
DWQMMTSPVTGATEKRK [CSL4]	2.44 ± 0.07	2.03 ± 0.11	2.3 ± 0.12	1.52 ± 0.062
YFYDLDVLKDGENNINF [BRN1]	3.57 ± 0.22	3.4 ± 0.15	3.54 ± 0.079	3.29 ± 0.11
TGYDLSNSVFSPDGRNF [PRE10]	2.79 ± 0.072	2.88 ± 0.089	2.52 ± 0.13	2.97 ± 0.087
